PMC7355005 (Proceedings of the National Academy of Sciences of the …, 2020)
Where “and” joins values, the source holds several entries; their conditions need not be identical. Equal values may be shown once.

B1: Haptoglobin 1-1 (Hp 1-1), dimer of two α1β units (complex)
chain 1: VDSGNDVTDIADDGCPKPPEIAHGYVEHSVRYQCKNYYKLRTEGDGVYTLNNEKQWINKAVGDKLPECEAVCGKPKNPANPVQ
chain 2: ILGGHLDAKGSFPWQAKMVSHHNLTTGATLINEQWLLTTAKNLFLNHSENATAKDIAPTLTLYVGKKQLVEIEKVVLHPNYSQVDIGLIKLKQKVSVNERVMPICLPSKDYAEVGRVGYVSGWGRNANFKFTDHLKYVMLPVADQDQCIRHYEGSTVPEKKTPKSPVGVQPILNEHTFCAGMSKYQEDTCYGDAGSAFAVHDLEEDTWYATGILSFDKSCAVAEYGVYVKVTSIQDWVQKTIAEN
modifications: N-glycans at Asn184, Asn207, Asn211 and Asn241
B2: Haptoglobin 2-2 (Hp 2-2), cyclic (α2)n(β)n oligomers (complex)
chain 1: VDSGNDVTDIADDGCPKPPEIAHGYVEHSVRYQCKNYYKLRTEGDGVYTLNDKKQWINKAVGDKLPECEADDGCPKPPEIAHGYVEHSVRYQCKNYYKLRTEGDGVYTLNNEKQWINKAVGDKLPECEAVCGKPKNPANPVQ
chain 2: B1 chain 2
modifications: N-glycans at Asn184, Asn207, Asn211 and Asn241
B3: Haptoglobin 2-1 (Hp 2-1) oligomers from the serum of a single heterozygote donor (complex)
chain 1: B1 chain 1
chain 2: B2 chain 1
chain 3: B1 chain 2
modifications: N-glycans at Asn184, Asn207, Asn211 and Asn241

What was measured:
Human hemoglobin (Hb) = Human hemoglobin (Hb) (human, UniProt P69905;P68871); experiment: mass photometry
Chain of Human hemoglobin (Hb) (P69905 whole entry, chain 1 of 2): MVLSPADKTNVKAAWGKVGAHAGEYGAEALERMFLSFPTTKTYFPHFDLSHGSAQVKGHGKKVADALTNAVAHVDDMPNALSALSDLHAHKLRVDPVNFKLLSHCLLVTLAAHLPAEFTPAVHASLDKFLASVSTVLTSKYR
Chain of Human hemoglobin (Hb) (P68871 whole entry, chain 2 of 2): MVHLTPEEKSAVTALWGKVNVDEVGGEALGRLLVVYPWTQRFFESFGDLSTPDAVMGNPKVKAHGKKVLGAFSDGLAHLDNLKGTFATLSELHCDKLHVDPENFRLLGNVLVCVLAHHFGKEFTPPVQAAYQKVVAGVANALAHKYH

mass photometry = biological target: the molecule itself; experiment: mass photometry
native MS = biological target: the molecule itself; experiment: native MS

Binder	stoichiometry N (Human hemoglobin (Hb))	stoichiometry N (mass photometry)	stoichiometry N (native MS)
B1	2 Hb(αβ) dimers per Hp 1-1 dimer	2 Hp (αβ) units	
B2	1 Hb(αβ) dimer per Hp (αβ) monomer		< 7 Hp (αβ) units
B3			3 Hp (αβ) units and 4 Hp (αβ) units and 5 Hp (αβ) units
